Reference: PMC5318870

Target: T1, RSV attachment glycoprotein G (RSV-G Protein, His Tag) (respiratory syncytial virus) (UniProt O36633)
T1 sequence: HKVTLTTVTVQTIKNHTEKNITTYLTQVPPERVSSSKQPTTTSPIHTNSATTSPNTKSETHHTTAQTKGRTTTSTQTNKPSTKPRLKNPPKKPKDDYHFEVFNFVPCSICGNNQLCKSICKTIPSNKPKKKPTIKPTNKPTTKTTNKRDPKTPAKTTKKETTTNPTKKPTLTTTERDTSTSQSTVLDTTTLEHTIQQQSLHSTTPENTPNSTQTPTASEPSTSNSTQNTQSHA
Test: fluorescence polarization
Conditions: FP: PBS pH 7.4, 0.5 nM aptamer; filter binding: PBS, BSA, 0.1% Tween 20, 0.1 ug/ml poly(dIdC), 50 nM aptamer, 20 min RT; ALPHA: HBSS, 1 mg/ml BSA, 0.05 ug/ml …

TAGGGAAGAGAAGGACATATGATAGTGCGGTGAGCCGTCGGACATACAAATACTTGACTAGTACATGACCACTTGA [H8 (Alexa Fluor 488)]
Kd: 30 nM
